Data on 2 molecules can be found in patent US20060270596A1 (CENTRE NATIONAL DE LA RECHERCHE SCIENTIFIQUE CNRS, published 2006).

As usually defined, the koff is the first-order rate constant of dissociation. One may read the kon as the rate constant with which the complex forms. A word on the Kd: it is the constant that tells how readily two partners part at equilibrium.

The target of one assay is T1, human THAP2, full length (human, UniProt Q9H0W7 1-228).
T1 construct: Two-hybrid fusion or 35S-labelled in vitro translation product
T1 sequence (Q9H0W7 whole entry, the tested form may be a part): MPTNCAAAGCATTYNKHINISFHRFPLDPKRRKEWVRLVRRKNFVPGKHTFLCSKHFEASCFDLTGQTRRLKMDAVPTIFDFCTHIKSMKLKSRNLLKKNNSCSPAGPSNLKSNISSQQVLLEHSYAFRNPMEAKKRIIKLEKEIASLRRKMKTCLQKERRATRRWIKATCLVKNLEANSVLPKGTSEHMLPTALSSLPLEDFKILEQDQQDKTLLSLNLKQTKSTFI
Description: yeast two-hybrid with Par-4 wild type bait. The procedure:
(§1) To assess whether THAP2 and THAP3 are able to interact with Par-4, yeast two hybrid assays using Par-4 wild type bait (FIG. 10B) and in vitro GST pull down assays (FIG. 10C), were performed as described above (Examples 4 and 5). As shown in FIGS. 10B and 10C, THAP2 and THAP3 are able to interact with Par-4. A sequence alignment showing the comparison of the THAP domain and the PAR4-binding domain between THAP1, THAP2 and THAP3 is shown in FIG. 10A.

A further assay addresses T2, human THAP3, full length (human, UniProt Q8WTV1 1-239).
T2 construct: Two-hybrid fusion or 35S-labelled in vitro translation product
T2 sequence: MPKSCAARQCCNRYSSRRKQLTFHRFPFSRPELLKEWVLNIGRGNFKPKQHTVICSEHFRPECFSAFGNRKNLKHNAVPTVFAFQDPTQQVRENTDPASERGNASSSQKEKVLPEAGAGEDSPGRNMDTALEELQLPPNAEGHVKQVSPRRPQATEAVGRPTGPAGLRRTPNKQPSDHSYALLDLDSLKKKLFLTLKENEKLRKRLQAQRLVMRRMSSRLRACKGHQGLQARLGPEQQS
Description: yeast two-hybrid with Par-4 wild type bait. The procedure:
as §1

The target in assay [1] is T3, THAP1ΔQRCRR mutant (deletion of residues 168-172) (human, UniProt Q9NVV9 1-213).
T3 sequence: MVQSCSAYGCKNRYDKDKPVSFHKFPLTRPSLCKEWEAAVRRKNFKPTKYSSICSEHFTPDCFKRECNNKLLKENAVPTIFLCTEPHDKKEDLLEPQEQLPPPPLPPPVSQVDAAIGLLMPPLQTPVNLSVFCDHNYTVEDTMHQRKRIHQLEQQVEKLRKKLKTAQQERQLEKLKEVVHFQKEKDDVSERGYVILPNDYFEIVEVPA
Description: yeast two-hybrid, Par4 wt bait. The procedure: for mutant THAP1ΔQRCRR. The resulting PCR fragments were digested with EcoRI and BamHI, and cloned in frame downstream of the Gal4 Binding Domain (Gal4-BD) in pGBKT7 two-hybrid vector (Clontech) to generate pGBKT7-THAP1-RR/AA and -Δ(QRCRR), or downstream of the Enhanced Green Fluorescent Protein (EGFP)ORF in pEGFP.C2 vector (Clontech) to generate pEGFP.C2-THAP1-RR/AA and -Δ(QRCRR). THAP1RR/AA and THAP1ΔQRCRR THAP1 mutants were then tested in the three THAP1/Par4 interaction assays (two-hybrid assay, in vitro THAP1/Par4 interaction assay, in vivo THAP1/Par4 interaction assay) as described above for the THAP1-C1, -C2, -C3, -N1, -N2 or -N3 mutants.

The target of assay [2] is T4, THAP1-N1 deletion mutant (amino acids 1-90) (human, UniProt Q9NVV9 1-90).
T4 construct: Gal4 fusion, in vitro translation product or GFP fusion according to assay; also called zinc finger domain of THAP1
T4 sequence: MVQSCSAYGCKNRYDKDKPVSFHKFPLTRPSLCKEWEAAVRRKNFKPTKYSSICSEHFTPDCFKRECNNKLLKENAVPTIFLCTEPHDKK
The experiment in a line: yeast two-hybrid, Par4 wt bait.

In assay [3] the target is T5, THAP1-C2 deletion mutant (amino acids 120-213) (human, UniProt Q9NVV9 120-213).
T5 construct: Gal4 fusion, in vitro translation product or GFP fusion according to assay
T5 sequence: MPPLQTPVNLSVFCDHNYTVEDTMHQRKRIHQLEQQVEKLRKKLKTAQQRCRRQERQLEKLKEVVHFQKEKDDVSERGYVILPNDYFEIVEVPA
Description: yeast two-hybrid, Par4 wt bait.

Assay [4] concerns the target T6, THAP1-C3 deletion mutant (amino acids 143-213) (human, UniProt Q9NVV9 143-213).
T6 construct: Gal4 fusion, in vitro translation product or GFP fusion according to assay
T6 sequence: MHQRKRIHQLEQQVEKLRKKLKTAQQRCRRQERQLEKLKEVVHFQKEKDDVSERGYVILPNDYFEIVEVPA
Description: yeast two-hybrid, Par4 wt bait.

The target of assay [5] is T7, THAP1-N2 deletion mutant (amino acids 1-166) (human, UniProt Q9NVV9 1-166).
T7 construct: Gal4 fusion, in vitro translation product or GFP fusion according to assay
T7 sequence: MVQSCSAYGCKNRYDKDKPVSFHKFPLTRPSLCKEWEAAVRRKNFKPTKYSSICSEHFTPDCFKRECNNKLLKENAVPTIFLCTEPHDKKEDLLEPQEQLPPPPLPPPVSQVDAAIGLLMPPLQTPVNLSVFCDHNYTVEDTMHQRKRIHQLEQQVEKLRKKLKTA
The experiment in a line: yeast two-hybrid, Par4 wt bait.

For assay [6], the target named is T8, THAP1-N3 deletion mutant (amino acids 1-192) (human, UniProt Q9NVV9 1-192).
T8 construct: Gal4 fusion, in vitro translation product or GFP fusion according to assay
T8 sequence: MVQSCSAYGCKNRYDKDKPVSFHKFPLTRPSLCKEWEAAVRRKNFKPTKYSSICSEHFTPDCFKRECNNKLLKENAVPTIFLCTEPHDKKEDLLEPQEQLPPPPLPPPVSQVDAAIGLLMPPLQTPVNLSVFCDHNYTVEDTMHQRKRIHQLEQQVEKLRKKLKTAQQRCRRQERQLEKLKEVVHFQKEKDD
The experiment in a line: yeast two-hybrid, Par4 wt bait.

Assay [7] addresses T9, THAP1-C1 deletion mutant (amino acids 90-213) (human, UniProt Q9NVV9 90-213).
T9 construct: Gal4 fusion, in vitro translation product or GFP fusion according to assay; also called THAP1-CL; THAP1ΔTHAP
T9 sequence: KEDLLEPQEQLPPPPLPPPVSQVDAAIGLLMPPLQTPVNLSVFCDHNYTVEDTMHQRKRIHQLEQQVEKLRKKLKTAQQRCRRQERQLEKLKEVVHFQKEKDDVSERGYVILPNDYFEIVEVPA
The experiment in a line: yeast two-hybrid, Par4 wt bait.

Assay [8] deals with T10, human THAP1 (THanatos-Associated-Protein-1), full length (human, UniProt Q9NVV9 1-213).
T10 construct: these tags are not written into the chain; also called hTHAP1; THAP1 wild type
T10 sequence: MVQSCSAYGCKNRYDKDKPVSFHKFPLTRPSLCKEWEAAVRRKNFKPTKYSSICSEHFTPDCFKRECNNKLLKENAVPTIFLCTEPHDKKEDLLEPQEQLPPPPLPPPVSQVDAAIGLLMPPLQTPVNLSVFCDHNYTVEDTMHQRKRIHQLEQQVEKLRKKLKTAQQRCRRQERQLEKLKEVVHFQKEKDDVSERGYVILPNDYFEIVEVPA
The experiment in a line: yeast two-hybrid, both orientations. On the procedure: To identify potential protein partners of THAP1, screening of the two-hybrid HEVEC cDNA library was performed using as a bait the human THAP1 full length cDNA inserted into the […] two-hybrid system 3 vector pGBKT7 (Clontech). Briefly, the full-length coding region of THAP1 was amplified by PCR from HEVEC cDNA with primers 2HMR10 (5′-[…]-3′) (SEQ ID NO: 187) and 2HMR9 (5′-[…]-3′) (SEQ ID NO: 188), digested with EcoRI and BamHI, and cloned in frame downstream of the Gal4 Binding Domain (Gal4-BD) in pGBKT7 vector to generate pGBKT7-THAP1. pGBKT7-THAP1 was then cotransformed with the pGAD424-HEVEC cDNA library in yeast strain AH109 (Clontech). 1.5×10⁷ yeast transformants were screened and positive protein interactions were selected by His and Ade double auxotrophy according to manufacturer's instructions ([…] two-hybrid system 3, Clontech). The plates were incubated at 30° C. for 5 days. Plasmid DNA was extracted from these positive colonies and used to verify the specificity of the interaction by cotransformation in AH109 with pGBKT7-THAP1 or control baits pGBKT7, pGBKT7-lamin and pGBKT7-hevin. […] Positive interaction between THAP1 and Par4 was confirmed using full length Par4 bait (pGBKT-Par4) and prey (pGADT7-Par4). […]

Assay [9] has as its target T11, THAP1 chemokine-binding domain/IgG1-Fc fusion constructed as described in Example 18B (THAP1 amino acids … (human, UniProt Q5RCE4 140-213 (Pongo abelii entry))).
T11 construct: Secreted with an immunoglobulin kappa light chain signal peptide (left out); also called Chemotrap-I; Chemotrap; not shown: human IgG1-Fc polypeptide from the N-terminal hinge region to the native C-terminus (hinge, CH2, CH3)
T11 sequence: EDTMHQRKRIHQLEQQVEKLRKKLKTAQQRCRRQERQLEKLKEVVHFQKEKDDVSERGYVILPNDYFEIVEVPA
Description: surface plasmon resonance (Biacore), Chemotrap-I coupled to the chip, CCL5/RANTES at 25, 50, 100 and 200 nM as analyte. The source says:
(§2) In this Example, surface plasmon resonance (SPR) was used to determine the dissociation constant for the binding of Rantes/CCL5 to a THAP1 chemokine binding domain/IgG1-Fc fusion prepared as described in Example 18B. All SPR measurements were made using a Biacore 3000 system (Biacore, Uppsala Sweden). […] Dextran layer free biosensors, C1 type, were used to assay specific interaction between Rantes/CCL5 and the THAP1 chemokine-binding domain/IgG1-Fc fusion. Purified recombinant human Rantes/CCL5 (purchased from Chemicon) were used as analyte protein at a fixed concentration in the fluid phase (10 mM HEPES pH 7.4, 150 mM NaCl, 3 mM EDTA, 0.005% P20 surfactant, as a running buffer), and at a constant flow of 20 μl/minute. To determine the binding kinetics, association and dissociation curves were established for several increasing concentration of chemokine: 25 nM, 50 nM, 100 nM and 200 nM for CCL5, respectively. Chemokine was injected during the association phase for 4 minutes (20 μl/minute). The dissociation phase was carried out over a period of 5 minutes. Between each phase of association-dissociation, the flow cells were regenerated by injection of 0.05% SDS (30 seconds at a flow rate of 20 μl/minute). Biaevaluation (Biacore) software was used for calculations of association and dissociation kinetic constants. […]
(§3) The dissociation constant was calculated to be 49 nM.

Assay [10] addresses T11, THAP1 chemokine-binding domain/IgG1-Fc …. The experiment in a line: SPR (Biacore 3000); Fc fusion amine-coupled to a C1 sensor chip, Rantes/CCL5 as analyte at 25, 50, 100 and 200 nM; KD=kd/ka.
Description: as §2, §3
(In general: Surface plasmon resonance follows binding to a sensor surface in real time, without labels.)

B1: human prostate apoptosis response-4 (PAR4), full length (other)
chain: MATGGYRTSSGLGGSTTDFLEEWKAKREKMRAKQNPPGPAPPGGGSSDAAGKPPAGALGTPAAAAANELNNNLPGGAPAAPAVPGPGGVNCAVGSAMLTRAPPARGPRRSEDEPPAASASAAPPPQRDEEEPDGVPEKGKSSGPSARKGKGQIEKRKLREKRRSTGVVNIPAAECLDEYEDDEAGQKERKREDAITQQNTIQNEAVNLLDPGSSYLLQEPPRTVSGRYKSTTSVSEEDVSSRYSRTDRSGFPRYNRDANVSGTLVSSSTLEKKIEDLEKEVVTERQENLRLVRLMQDKEEMIGKLKEEIDLLNRDLDDIEDENEQLKQENKTLLKVVGQLTR
notes: Gal4-BD or Gal4-AD fusion in two-hybrid; also called Par4 wild type
Turning to B1, the binding result is given as “binds” with human THAP2, full length; “binds” with human THAP3, full length; “no binding” in [1]; “no binding” in [2]; “binds” in [3]; “binds” in assay [4]. In addition, the binding result in [5] was “no binding”; in assay [6] it was “binds”; in assay [7], “binds”; in assay [8], “binds”.

B2: purified recombinant human Rantes/CCL5 (purchased from Chemicon) (ligand)
chain: SPYSSDTTPCCFAYIARPLPRAHIKEYFYTSGKCSNPAVVFVTRKNRQVCANPEKKWVREYINSLEMS
notes: Bought protein; also called recombinant Rantes/CCL5 human chemokine
For B2, in assay [9], the koff was 0.00229 s⁻¹ and the kon is 46400 M⁻¹ s⁻¹. Further, the Kd in assay [10] came out at 49 nM.
